Data set [1] addresses dCas9 (catalytically deactivated Cas9) (UniProt Q99ZW2). The data set is described as follows: SPR. The conditions noted are these: SPR: 2 mM MgCl2, 37 °C, 30 min, 2 µL DNA (up to 1000 ng/µL), dRNP on graphdiyne chip, rinse 2 mM MgCl2, bead assay: 2 mM MgCl2, 37 °C, 1 h, pH not stated.
The target is the same in data set [2]. The data set is described as follows: magnetic bead pull-down, qPCR. The conditions noted are these: 2 mM Mg2+; SPR: 2 mM MgCl2, 37 °C, 30 min, 2 µL DNA (up to 1000 ng/µL), dRNP on graphdiyne chip, rinse 2 mM MgCl2; bead assay: 2 mM MgCl2, 37 °C, 1 h; pH not stated.

As a reminder, the Kd is a measure of binding affinity in units of concentration. High values mean lower affinity, low ones higher affinity.

Chain of UniProt Q99ZW2 (Q99ZW2 whole entry): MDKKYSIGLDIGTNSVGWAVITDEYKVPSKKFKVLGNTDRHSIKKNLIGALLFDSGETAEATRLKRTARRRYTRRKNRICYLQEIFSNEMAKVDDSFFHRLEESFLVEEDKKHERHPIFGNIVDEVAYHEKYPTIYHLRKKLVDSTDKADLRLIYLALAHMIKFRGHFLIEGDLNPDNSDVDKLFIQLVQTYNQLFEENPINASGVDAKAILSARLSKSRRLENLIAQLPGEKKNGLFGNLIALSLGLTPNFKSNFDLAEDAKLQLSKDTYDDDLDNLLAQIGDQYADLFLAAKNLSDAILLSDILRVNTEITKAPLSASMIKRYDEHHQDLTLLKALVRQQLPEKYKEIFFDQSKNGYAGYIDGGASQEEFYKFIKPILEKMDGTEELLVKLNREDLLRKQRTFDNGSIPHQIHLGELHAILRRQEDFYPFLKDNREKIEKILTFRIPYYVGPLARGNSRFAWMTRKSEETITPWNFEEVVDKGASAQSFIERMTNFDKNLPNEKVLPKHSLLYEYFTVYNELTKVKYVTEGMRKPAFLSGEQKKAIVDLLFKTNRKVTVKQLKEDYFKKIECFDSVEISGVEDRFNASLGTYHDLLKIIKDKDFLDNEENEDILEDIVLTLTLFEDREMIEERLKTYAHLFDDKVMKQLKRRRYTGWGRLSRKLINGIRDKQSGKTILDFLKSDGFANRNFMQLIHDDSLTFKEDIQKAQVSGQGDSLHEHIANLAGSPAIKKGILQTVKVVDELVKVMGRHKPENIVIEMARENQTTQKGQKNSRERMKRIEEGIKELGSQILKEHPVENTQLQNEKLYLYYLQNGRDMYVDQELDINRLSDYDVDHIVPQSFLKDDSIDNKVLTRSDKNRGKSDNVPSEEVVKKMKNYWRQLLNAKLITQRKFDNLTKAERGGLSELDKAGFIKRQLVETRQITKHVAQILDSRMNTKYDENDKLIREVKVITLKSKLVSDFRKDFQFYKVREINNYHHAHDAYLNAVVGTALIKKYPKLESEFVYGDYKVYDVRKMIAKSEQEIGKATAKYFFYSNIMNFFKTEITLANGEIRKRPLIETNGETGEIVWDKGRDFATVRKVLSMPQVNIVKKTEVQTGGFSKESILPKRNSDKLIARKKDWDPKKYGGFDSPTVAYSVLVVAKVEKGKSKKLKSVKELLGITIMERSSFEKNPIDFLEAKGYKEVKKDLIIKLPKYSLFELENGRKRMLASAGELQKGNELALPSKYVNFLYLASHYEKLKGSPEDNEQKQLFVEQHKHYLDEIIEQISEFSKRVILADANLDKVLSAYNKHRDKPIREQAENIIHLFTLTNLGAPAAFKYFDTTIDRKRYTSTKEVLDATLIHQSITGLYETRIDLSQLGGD

As to “GGGUGCCUGCAGCUCCACACUAGGUUUUAGAGCUAGAAAUAGCAAGUUAAAAUAAGGCUAGU [sgRNA-Mut3 + pUC19-Mut3-0.8k amplicon]”, the Kd in data set [1] is 7.61 10^-8 M. In data set [2], the binding signal is 99.8 % captured. In the case of “GGGUGCCUGCAGGUCGCACCUAGGUUUUAGAGCUAGAAAUAGCAAGUUAAAAUAAGGCUAGU [sgRNA-Mut1 + pUC19-Mut1-0.3k amplicon]”, in data set [2], the binding signal was 89.2 % captured. “GGGUGCCUGCAGCUCCACACUAGGUUUUAGAGCUAGAAAUAGCAAGUUAAAAUAAGGCUAGU [sgRNA-Mut3 + pUC19-Mut3-0.3k amplicon]” displayed a binding signal in data set [2] of 99.8 % captured. Sequence “GGGUGUAGUAGCCGCCGUCGCGCGUUUUAGAGCUAGAAAUAGCAAGUUAAAAUAAGGCUAGU [sgRNA-GFP-Pos2 + pCDH-GFP-2k amplicon]” came in with a binding signal in data set [2] of 99.4 % captured.

In turn, “GGGGUUCGCCUUCCGCCGCGUGGGUUUUAGAGCUAGAAAUAGCAAGUUAAAAUAAGGCUAGU [sgRNA-GFP-Pos3 + pCDH-GFP-5k amplicon]” displayed a Kd in data set [1] (2 mM Mg2+, ka 0.11e5 M-1s-1, kd 6.5e-3 s-1) of 591 nM. In data set [2], “GGGUGCCUGCAGGUCGCACCUAGGUUUUAGAGCUAGAAAUAGCAAGUUAAAAUAAGGCUAGU [sgRNA-Mut1 + pUC19-Mut1-0.8k amplicon]” showed a binding signal of 69.8 % captured. For “GGGUGUAGUAGCCGCCGUCGCGCGUUUUAGAGCUAGAAAUAGCAAGUUAAAAUAAGGCUAGU [sgRNA-GFP-Pos2 + pCDH-GFP-5k amplicon]”, the Kd in data set [1] is 1.38 10^-8 M. For the same sequence, in data set [2], the binding signal was found to be 99.7 % captured.

Source of the values: paper PMC9108660.
